# B1: E3 ubiquitin-protein ligase RNF146 (Homo sapiens), Q9NTX7 (parent)
# chain: MMAGCGEIDHSINMLPTNRKANESCSNTAPSLTVPECAICLQTCVHPVSLPCKHVFCYLCVKGASWLGKRCALCRQEIPEDFLDKPTLLSPEELKAASRGNGEYAWYYEGRNGWWQYDERTSRELEDAFSKGKKNTEMLIAGFLYVADLENMVQYRRNEHGRRRKIKRDIIDIPKKGVAGLRLDCDANTVNLARESSADGADSVSAQSGASVQPLVSSVRPLTSVDGQLTSPATPSPDASTSLEDSFAHLQLSGDNTAERSHRGEGEEDHESPSSGRVPAPDTSIEETESDASSDSEDVSAVVAQHSLTQQRLLVSNANQTVPDRSDRSGTDRSVAGGGTVSVSVRSRRPDGQCTVTEV
# Variants of: B1
# Conditions: with tnks1_human TNKS
row,effect of a mutation on the interaction,Variant
1,decreasing interaction strength,G200V
2,decreasing interaction strength,G200V;G338V;G339V

# Variants of: B1
# Conditions: with tnks1_human TNKS
# Remark: another data set of the same source
row,effect of a mutation on the interaction,Variant
1,decreasing interaction strength,G338V;G339V

# Source: IntAct's records for PubMed 25327252
